Experiments:
[1] = system: HeLa Kyoto; assay: solubility in G1/S (NP-40 vs SDS abundance) (log2 ratio); higher = more soluble; conditions: cell cycle stage: G1/S
[2] = system: HeLa Kyoto; assay: solubility change mitosis vs G1/S (difference of NP-40 vs SDS log2 ratios) (log2 ratio difference); higher = more soluble in mitosis
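Throughout, for solubility change mitosis vs G1/S (difference of NP-40 vs SDS log2 ratios): synchronized HeLa Kyoto cells (double thymidine block for G1/S, nocodazole release for mitosis), protein amounts in NP-40 versus SDS lysates quantified by mass spectrometry, three biological replicates.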
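Throughout, for solubility in G1/S (NP-40 vs SDS abundance): HeLa Kyoto cells arrested at G1/S by double thymidine block, proteins quantified by TMT10plex mass spectrometry in mild NP-40 versus SDS extracts, three biological replicates.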

Row | Sequence | solubility in G1/S (log2) [1] | solubility change mitosis (log2) [2]
1 | MSEVLPADSGVDTLAVFMASSGTTDVTNRNSPATPPNTLNLRSSHNELLNAEIKHTETKNSTPPKCRKKYALTNIQAAMGLSDPAAQPLLGNGSANIKLVKNGENQLRKAAEQGQQDPNKNLSPTAVINITSEKLEGKEPHPQDSSSCEILPSQPRRTKSFLNYYADLETSARELEQNRGNHHGTAEEKSQPVQGQASTIIGNGDLLLQKPNRPQSSPEDGQVATVSSSPETKKDHPKTGAKTDCALHRIQNLAPSDEESSWTTLSQDSASPSSPDETDIWSDHSFQTDPDLPPGWKRVSDIAGTYYWHIPTGTTQWERPVSIPADLQGSRKGSLSSVTPSPTPENEKQPWSDFAVLNGGKINSDIWKDLHAATVNPDPSLKEFEGATLRYASLKLRNAPHPDDDDSCSINSDPEAKCFAVRSLGWVEMAEEDLAPGKSSVAVNNCIRQLSYCKNDIRDTVGIWGEGKDMYLILENDMLSLVDPMDRSVLHSQPIVSIRVWGVGRDNGRDFAYVARDKDTRILKCHVFRCDTPAKAIATSLHEICSKIMAERKNAKALACSSLQERANVNLDVPLQVDFPTPKTELVQKFHVQYLGMLPVDKPVGMDILNSAIENLMTSSNKEDWLSVNMNVADATVTVISEKNEEEVLVECRVRFLSFMGVGKDVHTFAFIMDTGNQRFECHVFWCEPNAGNVSEAVQAACMLRYQKCLVARPPSQKVRPPPPPADSVTRRVTTNVKRGVLSLIDTLKQKRPVTEMP [APBB2] | 0.0839 | -0.0698
2 | MSFLIDSSIMITSQILFFGFGWLFFMRQLFKDYEIRQYVVQVIFSVTFAFSCTMFELIIFEILGVLNSSSRYFHWKMNLCVILLILVFMVPFYIGYFIVSNIRLLHKQRLLFSCLLWLTFMYFFWKLGDPFPILSPKHGILSIEQLISRVGVIGVTLMALLSGFGAVNCPYTYMSYFLRNVTDTDILALERRLLQTMDMIISKKKRMAMARRTMFQKGEVHNKPSGFWGMIKSVTTSASGSENLTLIQQEVDALEELSRQLFLETADLYATKERIEYSKTFKGKYFNFLGYFFSIYCVWKIFMATINIVFDRVGKTDPVTRGIEITVNYLGIQFDVKFWSQHISFILVGIIIVTSIRGLLITLTKFFYAISSSKSSNVIVLLLAQIMGMYFVSSVLLIRMSMPLEYRTIITEVLGELQFNFYHRWFDVIFLVSALSSILFLYLAHKQAPEKQMAP [GPR89B] | -0.0559 | -0.167
3 | MSHGPKQPGAAAAPAGGKAPGQHGGFVVTVKQERGEGPRAGEKGSHEEEPVKKRGWPKGKKRKKILPNGPKAPVTGYVRFLNERREQIRTRHPDLPFPEITKMLGAEWSKLQPTEKQRYLDEAEREKQQYMKELRAYQQSEAYKMCTEKIQEKKIKKEDSSSGLMNTLLNGHKGGDCDGFSTFDVPIFTEEFLDQNKAREAELRRLRKMNVAFEEQNAVLQRHTQSMSSARERLEQELALEERRTLALQQQLQAVRQALTASFASLPVPGTGETPTLGTLDFYMARLHGAIERDPAQHEKLIVRIKEILAQVASEHL [HMG20B] | 0.616 | -0.0403
4 | MSKGRAEAAAGAAGILLRYLQEQNRPYSSQDVFGNLQREHGLGKAVVVKTLEQLAQQGKIKEKMYGKQKIYFADQDQFDMVSDADLQVLDGKIVALTAKVQSLQQSCRYMEAELKELSSALTTPEMQKEIQELKKECAGYRERLKNIKAATNHVTPEEKEQVYRERQKYCKEWRKRKRMATELSDAILEGYPKSKKQFFEEVGIETDEDYNVTLPDP [PSMC3IP] | 0.125 | 0.072
5 | MSKTFLRPKVSSTKVTDWVDPSFDDFLECSGVSTITATSLGVNNSSHRRKNGPSTLESSRFPARKRGNLSSLEQIYGLENSKEYLSENEPWVDKYKPETQHELAVHKKKIEEVETWLKAQVLERQPKQGGSILLITGPPGCGKTTTLKILSKEHGIQVQEWINPVLPDFQKDDFKGMFNTESSFHMFPYQSQIAVFKEFLLRATKYNKLQMLGDDLRTDKKIILVEDLPNQFYRDSHTLHEVLRKYVRIGRCPLIFIISDSLSGDNNQRLLFPKEIQEECSISNISFNPVAPTIMMKFLNRIVTIEANKNGGKITVPDKTSLELLCQGCSGDIRSAINSLQFSSSKGENNLRPRKKGMSLKSDAVLSKSKRRKKPDRVFENQEVQAIGGKDVSLFLFRALGKILYCKRASLTELDSPRLPSHLSEYERDTLLVEPEEVVEMSHMPGDLFNLYLHQNYIDFFMEIDDIVRASEFLSFADILSGDWNTRSLLREYSTSIATRGVMHSNKARGYAHCQGGGSSFRPLHKPQWFLINKKYRENCLAAKALFPDFCLPALCLQTQLLPYLALLTIPMRNQAQISFIQDIGRLPLKRHFGRLKMEALTDREHGMIDPDSGDEAQLNGGHSAEESLGEPTQATVPETWSLPLSQNSASELPASQPQPFSAQGDMEENIIIEDYESDGT [RAD17] | -0.0641 | 0.000111
6 | MSLERELRQLSKAKAKAQRAGQRREEAALCHQLGELLAGHGRYAEALEQHWQELQLRERADDPLGCAVAHRKIGERLAEMEDYPAALQHQHQYLELAHSLRNHTELQRAWATIGRTHLDIYDHCQSRDALLQAQAAFEKSLAIVDEELEGTLAQGELNEMRTRLYLNLGLTFESLQQTALCNDYFRKSIFLAEQNHLYEDLFRARYNLGTIHWRAGQHSQAMRCLEGARECAHTMRKRFMESECCVVIAQVLQDLGDFLAAKRALKKAYRLGSQKPVQRAAICQNLQHVLAVVRLQQQLEEAEGRDPQGAMVICEQLGDLFSKAGDFPRAAEAYQKQLRFAELLDRPGAERAIIHVSLATTLGDMKDHHGAVRHYEEELRLRSGNVLEEAKTWLNIALSREEAGDAYELLAPCFQKALSCAQQAQRPQLQRQVLQHLHTVQLRLQPQEAPETETRLRELSVAEDEDEEEEAEEAAATAESEALEAGEVELSEGEDDTDGLTPQLEEDEELQGHLGRRKGSKWNRRNDMGETLLHRACIEGQLRRVQDLVRQGHPLNPRDYCGWTPLHEACNYGHLEIVRFLLDHGAAVDDPGGQGCEGITPLHDALNCGHFEVAELLLERGASVTLRTRKGLSPLETLQQWVKLYRRDLDLETRQKARAMEMLLQAAASGQDPHSSQAFHTPSSLLFDPETSPPLSPCPEPPSNSTRLPEASQAHVRVSPGQAAPAMARPRRSRHGPASSSSSSEGEDSAGPARPSQKRPRCSATAQRVAAWTPGPASNREAATASTSRAAYQAAIRGVGSAQSRLGPGPPRGHSKALAPQAALIPEEECLAGDWLELDMPLTRSRRPRPRGTGDNRRPSSTSGSDSEESRPRARAKQVRLTCMQSCSAPVNAGPSSLASEPPGSPSTPRVSEPSGDSSAAGQPLGPAPPPPIRVRVQVQDHLFLIPVPHSSDTHSVAWLAEQAAQRYYQTCGLLPRLTLRKEGALLAPQDLIPDVLQSNDEVLAEVTSWDLPPLTDRYRRACQSLGQGEHQQVLQAVELQGLGLSFSACSLALDQAQLTPLLRALKLHTALRELRLAGNRLGDKCVAELVAALGTMPSLALLDLSSNHLGPEGLRQLAMGLPGQATLQSLEELDLSMNPLGDGCGQSLASLLHACPLLSTLRLQACGFGPSFFLSHQTALGSAFQDAEHLKTLSLSYNALGAPALARTLQSLPAGTLLHLELSSVAAGKGDSDLMEPVFRYLAKEGCALAHLTLSANHLGDKAVRDLCRCLSLCPSLISLDLSANPEISCASLEELLSTLQKRPQGLSFLGLSGCAVQGPLGLGLWDKIAAQLRELQLCSRRLCAEDRDALRQLQPSRPGPGECTLDHGSKLFFRRL [TONSL] | -0.116 | 0.119
7 | MSQKQEEENPAEETGEEKQDTQEKEGILPERAEEAKLKAKYPSLGQKPGGSDFLMKRLQKGQKYFDSGDYNMAKAKMKNKQLPSAGPDKNLVTGDHIPTPQDLPQRKSSLVTSKLAGGQVE [ENSA] | -0.789 | 0.654
8 | MSRQAKDDFLRHYTVSDPRTHPKGYTEYKVTAQFISKKDPEDVKEVVVWKRYSDFRKLHGDLAYTHRNLFRRLEEFPAFPRAQVFGRFEASVIEERRKGAEDLLRFTVHIPALNNSPQLKEFFRGGEVTRPLEVSRDLHILPPPLIPTPPPDDPRLSQLLPAERRGLEELEVPVDPPPSSPAQEALDLLFNCESTEEASGSPARGPLTEAELALFDPFSKEEGAAPSPTHVAELATMEVESARLDQEPWEPGGQEEEEDGEGGPTPAYLSQATELITQALRDEKAGAYAAALQGYRDGVHVLLQGVPSDPLPARQEGVKKKAAEYLKRAEEILRLHLSQLPP [SNX15] | 0.365 | -0.104
9 | MSRRRFDCRSISGLLTTTPQIPIKMENFNNFYILTSKELGRGKFAVVRQCISKSTGQEYAAKFLKKRRRGQDCRAEILHEIAVLELAKSCPRVINLHEVYENTSEIILILEYAAGGEIFSLCLPELAEMVSENDVIRLIKQILEGVYYLHQNNIVHLDLKPQNILLSSIYPLGDIKIVDFGMSRKIGHACELREIMGTPEYLAPEILNYDPITTATDMWNIGIIAYMLLTHTSPFVGEDNQETYLNISQVNVDYSEETFSSVSQLATDFIQSLLVKNPEKRPTAEICLSHSWLQQWDFENLFHPEETSSSSQTQDHSVRSSEDKTSKSSCNGTCGDREDKENIPEDSSMVSKRFRFDDSLPNPHELVSDLLC [STK17B] | 0.0558 | -0.161
10 | MSRRTRCEDLDELHYQDTDSDVPEQRDSKCKVKWTHEEDEQLRALVRQFGQQDWKFLASHFPNRTDQQCQYRWLRVLNPDLVKGPWTKEEDQKVIELVKKYGTKQWTLIAKHLKGRLGKQCRERWHNHLNPEVKKSCWTEEEDRIICEAHKVLGNRWAEIAKMLPGRTDNAVKNHWNSTIKRKVDTGGFLSESKDCKPPVYLLLELEDKDGLQSAQPTEGQGSLLTNWPSVPPTIKEEENSEEELAAATTSKEQEPIGTDLDAVRTPEPLEEFPKREDQEGSPPETSLPYKWVVEAANLLIPAVGSSLSEALDLIESDPDAWCDLSKFDLPEEPSAEDSINNSLVQLQASHQQQVLPPRQPSALVPSVTEYRLDGHTISDLSRSSRGELIPISPSTEVGGSGIGTPPSVLKRQRKRRVALSPVTENSTSLSFLDSCNSLTPKSTPVKTLPFSPSQFLNFWNKQDTLELESPSLTSTPVCSQKVVVTTPLHRDKTPLHQKHAAFVTPDQKYSMDNTPHTPTPFKNALEKYGPLKPLPQTPHLEEDLKEVLRSEAGIELIIEDDIRPEKQKRKPGLRRSPIKKVRKSLALDIVDEDVKLMMSTLPKSLSLPTTAPSNSSSLTLSGIKEDNSLLNQGFLQAKPEKAAVAQKPRSHFTTPAPMSSAWKTVACGGTRDQLFMQEKARQLLGRLKPSHTSRTLILS [MYBL2] | 0.219 | -0.187
11 | MSTTLLSAFYDVDFLCKTEKSLANLNLNNMLDKKAVGTPVAAAPSSGFAPGFLRRHSASNLHALAHPAPSPGSCSPKFPGAANGSSCGSAAAGGPTSYGTLKEPSGGGGTALLNKENKFRDRSFSENGDRSQHLLHLQQQQKGGGGSQINSTRYKTELCRPFEESGTCKYGEKCQFAHGFHELRSLTRHPKYKTELCRTFHTIGFCPYGPRCHFIHNADERRPAPSGGASGDLRAFGTRDALHLGFPREPRPKLHHSLSFSGFPSGHHQPPGGLESPLLLDSPTSRTPPPPSCSSASSCSSSASSCSSASAASTPSGAPTCCASAAAAAAAALLYGTGGAEDLLAPGAPCAACSSASCANNAFAFGPELSSLITPLAIQTHNFAAVAAAAYYRSQQQQQQQGLAPPAQPPAPPSATLPAGAAAPPSPPFSFQLPRRLSDSPVFDAPPSPPDSLSDRDSYLSGSLSSGSLSGSESPSLDPGRRLPIFSRLSISDD [ZFP36L2] | 0.322 | -0.261

Reference: the supplement of paper PMC5998384
